Reference: publication PMC5727297

Biological target: WT SOD1, purified from E. coli (human) (UniProt P00441)
Test: NMR titration; 100 uM WT [U-15N]-apo-SOD1^SH in PBS pH 7.4 titrated with unlabelled CCS-D2 up to three equivalents, anaerobic, 298 K, 900 MHz

Chain of UniProt P00441 (P00441 whole entry): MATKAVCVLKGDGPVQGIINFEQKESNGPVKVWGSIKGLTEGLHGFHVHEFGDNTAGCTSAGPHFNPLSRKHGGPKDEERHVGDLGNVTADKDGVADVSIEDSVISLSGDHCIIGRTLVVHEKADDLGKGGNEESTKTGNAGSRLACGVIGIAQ

percent of apo-SOD1^SH still free with 1 equivalent of CCS-D2: 20%
Substance: CCS-D2, purified from E. coli (domain or fragment)
